The text below walks through data of patent publication US9243034B2, “Glycogen synthase kinase-3 inhibitors” (Ramot at Tel-Aviv University Ltd., priority 2011, dated 2016).

One assay has as its target T1, F93A mutant GSK-3β (Homo sapiens, UniProt P49841, F93A).
T1 construct: made in house; host or cells: HEK-293 (transient transfection, pCMV4 vector; DE-52 partial purification)
The experiment in a line: In vitro kinase assay with F93A mutant in presence or absence of inhibitor. To be noted: FIGS. 2B, 2C. The class given is biochemical. The source says: (§1) GSK-3β in the pCMV4 vector was used as the template for mutagenesis. Mutations were generated using QuickChange Site Directed Mutagenesis Kit (Stratagene, La Jolla, Calif., USA) according the manufacturer's protocols. Mutations included replacement of D90, K91, R92, F93, K94, V214 to alanine, F93 to tyrosine, and a triple mutation at residues 91-93. All constructs were sequenced to confirm the presence of desired mutations. The sequences of mutagenic oligonucleotides are available from the inventors upon request.
(§2) HEK-293 cells were grown in Dulbecco's Modified Eagle's Medium (DMEM), supplemented with 10% fetal calf serum (FCS), 2 mM glutamine, 100 units/ml penicillin, and 100 μg/ml streptomycin. HEK-293 cells were transiently transfected with indicated constructs, using calcium phosphate method as described [Ilouz et al. (2006) supra]. Cells were lysed in ice-cold buffer G (20 mM Tris-HCl, pH 7.5, 10 mM β-glycerophosphate, 10% glycerol, 1 mM EGTA, 1 mM EDTA, 50 mM NaF, 5 mM sodium pyrophosphate, 0.5 mM orthovanadate, 1 mM benzamidine, 10 μg/ml leupeptin, 5 μg/ml aprotinin, 1 μg/ml pepstatin, and 0.5% Triton X100). Cell extracts were centrifuged for 30 minutes at 15,000×g. […] In all experiments, GSK-3 mutants were expressed at levels at least 5-fold higher than levels of the endogenous GSK-3β as determined by western blot analysis. […]

The subject of assay [1] is GSK-3β mutants Q89A, N95A, R92A, K94A and F93Y. The experiment in a line: In vitro kinase assay with other GSK-3β mutants in presence or absence of inhibitor. Type of assay: biochemical, human. To be noted: data not shown.
Description: as §1, §2

For the next assay, the target named is T2, GSK-3β (Homo sapiens, UniProt P49841).
T2 construct: made in house; host or cells: HEK-293 (transient transfection, pCMV4 vector; DE-52 partial purification)
The experiment in a line: In vitro kinase assay with GSK-3β in the presence of peptide inhibitor. The class given is biochemical. To be noted: for Inhibition of WT-GSK-3β compared with L803: 250 μM each, FIGS. 3B, 3C. On the procedure: (§3) (0.5 μCi/assay) for 15 minutes.
The ability of each peptide to inhibit GSK-3β was then determined by in vitro kinase assays as described hereinabove.

For the next assay, the system named is p9CREB. The experiment in a line: In vitro kinase assay of GSK-3β mutants, substrate p9CREB. Type of assay: biochemical. To be noted: WT set to 100%; mean of 2-3 experiments ± SEM. As to the method:
(§4) HEK-293 cells were grown in Dulbecco's Modified Eagle's Medium (DMEM), supplemented with 10% fetal calf serum (FCS), 2 mM glutamine, 100 units/ml penicillin, and 100 μg/ml streptomycin. HEK-293 cells were transiently transfected with indicated constructs, using calcium phosphate method as described [Ilouz et al. (2006) supra]. Cells were lysed in ice-cold buffer G (20 mM Tris-HCl, pH 7.5, 10 mM β-glycerophosphate, 10% glycerol, 1 mM EGTA, 1 mM EDTA, 50 mM NaF, 5 mM sodium pyrophosphate, 0.5 mM orthovanadate, 1 mM benzamidine, 10 μg/ml leupeptin, 5 μg/ml aprotinin, 1 μg/ml pepstatin, and 0.5% Triton X100). Cell extracts were centrifuged for 30 minutes at 15,000×g. Supernatants were collected, and equal amounts of proteins were boiled with SDS sample buffer and subjected to gel electrophoresis (7.5-12% polyacrylamide gel), transferred to nitrocellulose membranes, and immunoblotted with indicated antibodies. For partial purification, cells were lysed in buffer H (20 mM Tris, pH 7.3, 1 mM EGTA, 1 mM EDTA, 1 mM orthovanadate, 25 μg/ml leupeptin, 25 μg/ml aprotinin, and 25 μg/ml pepstatin A, 500 nM microcystine LR, and 0.25% Triton X100). The lysates were centrifuged at 15,000×g. The resulting supernatants were passed through DE-52 (Whatman, Maidstone, England) mini-columns that were equilibrated with buffer H. GSK-3β proteins were eluted with the same buffer containing 0.02 M NaCl. Equal amounts of proteins were used for in vitro kinase assays. In all experiments, GSK-3 mutants were expressed at levels at least 5-fold higher than levels of the endogenous GSK-3β as determined by western blot analysis.
as §3
(§5) The GSK-3β mutants were partially purified by ion exchange chromatography, and their abilities to phosphorylate peptide substrates were tested in in vitro kinase assays. The substrates were: pIRS-1, p9CREB, and pGS-1, phosphorylated peptides derived from the insulin receptor substrate-1 (IRS-1), cAMP responsive element binding protein (CREB), and glycogen synthase, respectively.
(§6) The results are presented in Table 1, as the percentage of substrate phosphorylation (indicated peptides, pIRS-1, p9CREB and pGS-1) obtained with WTGSK-3β which was set to 100%, and are mean of 2-3 independent experiments each performed in duplicates±SEM.

In the next assay the test system is pIRS-1. Nature of the assay: In vitro kinase assay of GSK-3β mutants, substrate pIRS-1. The class given is biochemical. As to conditions: WT set to 100%; mean of 2-3 experiments ± SEM. As to the method:
as §4, §3, §5, §6

A further assay deals with pGS-1. The experiment in a line: In vitro kinase assay of GSK-3β mutants, substrate pGS-1. The class given is biochemical. As to conditions: WT set to 100%; mean of 2-3 experiments ± SEM. On the procedure:
as §4, §3, §5, §6

Where no end group is shown, it is not given here. [ ]: non-standard residue; d: D form. The star is where a group is joined. Myristoyl = CCCCCCCCCCCCCC(=O)*; pS = N[C@@H](COP(=O)(O)O)C(=O)O

T2 sequence (P49841 1-433 isoform P49841-2): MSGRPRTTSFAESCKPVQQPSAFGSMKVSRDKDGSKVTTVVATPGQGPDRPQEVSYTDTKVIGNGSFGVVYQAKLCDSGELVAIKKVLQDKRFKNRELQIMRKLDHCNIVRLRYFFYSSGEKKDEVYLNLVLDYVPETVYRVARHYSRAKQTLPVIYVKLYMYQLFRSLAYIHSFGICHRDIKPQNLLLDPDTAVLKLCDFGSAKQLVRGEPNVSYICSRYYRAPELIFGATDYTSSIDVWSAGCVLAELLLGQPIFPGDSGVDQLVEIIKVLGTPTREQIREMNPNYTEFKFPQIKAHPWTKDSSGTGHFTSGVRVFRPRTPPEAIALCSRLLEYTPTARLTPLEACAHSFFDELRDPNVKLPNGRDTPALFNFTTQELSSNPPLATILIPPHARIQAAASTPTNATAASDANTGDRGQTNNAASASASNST
T1 sequence (P49841 1-433 isoform P49841-2 F93A): as the sequence (P49841 1-433 isoform P49841-2) above, with F93A counted along it

Consider KEAPPAPPQS(p)P (KEAPPAPPQ[pS]P) [L803], for which the “Inhibition of F93A mutated enzyme” value in the assay with F93A mutant GSK-3β was “did not inhibit”. Also, in assay [1], the “Inhibition of other GSK-3β mutants” value is “inhibited all other mutants”.
For the molecule “L803-mts: L803 in which myristic acid was attached to its N-terminal, cell permeable, SEQ ID NO:5 (Myristoyl-GKEAPPAPPQSP; not fully specified (residue 11))”, in the assay with F93A mutant GSK-3β, the “Inhibition of F93A mutated enzyme” value is on record as “did not inhibit”. Besides, in the assay with GSK-3β (purified GSK-3β, 100 μM, FIG. 2A), the “Competition with substrates pIRS-1, p9CREB, pGS-1” value is listed as “competes with various substrates”. Further, in assay [1], the “Inhibition of other GSK-3β mutants” value was “able to inhibit all other mutants”.
Regarding “Lys-Ala-Ala-Pro-Pro-Ala-Pro-Pro-Gln-phosphorylated Ser-Pro [PE2A]”, the “Inhibition of WT-GSK-3β compared with L803” value at GSK-3β is listed as “slightly impaired”.
Take “Lys-Glu-Ala-Pro-Pro-Ala-Pro-Pro-Ala-phosphorylated Ser-Pro [PQ9A]”: the “Increase of inhibition relative to L803” value on GSK-3β (250 μM, FIG. 3B) is reported as “about two-fold”.
Take “Lys-Glu-Ala-Pro-Pro-Ala-Pro-Pro-Pro-phosphorylated Ser-Pro [PQ9P]”: at GSK-3β (L803, PQ9A and PQ9P compared, FIG. 5), the “Inhibition activity, dose-response comparative plots” value was “enhanced inhibition activity”.
For “PQ9R: L803 variant, Gln 9 replaced with arginine, SEQ ID NO:14 (KEAPPAPPRSP; PQ9R synthetic peptide)”, the “Inhibition of WT-GSK-3β compared with L803” value in the assay with GSK-3β is “non-inhibitory”.
Same read-out and setting: the entry for “PQ9Y: L803 variant, Gln 9 replaced with tyrosine, SEQ ID NO:15 (KEAPPAPPYSP; PQ9Y synthetic peptide)” is “non-inhibitory”.

B1: R92A: GSK-3β mutant, R92 replaced by alanine, SEQ ID NO:8 (protein)
chain: MSGRPRTTSFAESCKPVQQPSAFGSMKVSRDKDGSKVTTVVATPGQGPDRPQEVSYTDTKVIGNGSFGVVYQAKLCDSGELVAIKKVLQDKAFKNRELQIMRKLDHCNIVRLRYFFYSSGEKKDEVYLNLVLDYVPETVYRVARHYSRAKQTLPVIYVKLYMYQLFRSLAYIHSFGICHRDIKPQNLLLDPDTAVLKLCDFGSAKQLVRGEPNVSYICSRYYRAPELIFGATDYTSSIDVWSAGCVLAELLLGQPIFPGDSGVDQLVEIIKVLGTPTREQIREMNPNYTEFKFPQIKAHPWTKDSSGTGHFTSGVRVFRPRTPPEAIALCSRLLEYTPTARLTPLEACAHSFFDELRDPNVKLPNGRDTPALFNFTTQELSSNPPLATILIPPHARIQAAASTPTNATAASDANTGDRGQTNNAASASASNST
modifications: GSK-3 beta, R92A mutant
In the case of B1, the “Substrate phosphorylation (% of WTGSK-3β), p9CREB” value in the assay on p9CREB is given as 49 ± 19 % of WTGSK-3β. Further, the “Substrate phosphorylation (% of WTGSK-3β), pIRS-1” value with pIRS-1 is on record as 60 ± 3 % of WTGSK-3β. Besides, the “Substrate phosphorylation (% of WTGSK-3β), pGS-1” value with pGS-1 is reported as 41 ± 14 % of WTGSK-3β.

B2: K94A: GSK-3β mutant, K94 replaced by alanine, SEQ ID NO:10 (protein)
chain: MSGRPRTTSFAESCKPVQQPSAFGSMKVSRDKDGSKVTTVVATPGQGPDRPQEVSYTDTKVIGNGSFGVVYQAKLCDSGELVAIKKVLQDKRFANRELQIMRKLDHCNIVRLRYFFYSSGEKKDEVYLNLVLDYVPETVYRVARHYSRAKQTLPVIYVKLYMYQLFRSLAYIHSFGICHRDIKPQNLLLDPDTAVLKLCDFGSAKQLVRGEPNVSYICSRYYRAPELIFGATDYTSSIDVWSAGCVLAELLLGQPIFPGDSGVDQLVEIIKVLGTPTREQIREMNPNYTEFKFPQIKAHPWTKDSSGTGHFTSGVRVFRPRTPPEAIALCSRLLEYTPTARLTPLEACAHSFFDELRDPNVKLPNGRDTPALFNFTTQELSSNPPLATILIPPHARIQAAASTPTNATAASDANTGDRGQTNNAASASASNST
modifications: GSK-3 beta, K94A mutant
B2: in the assay on p9CREB, the “Substrate phosphorylation (% of WTGSK-3β), p9CREB” value is recorded as 71 ± 4 % of WTGSK-3β. For the same molecule, the “Substrate phosphorylation (% of WTGSK-3β), pIRS-1” value in the assay with pIRS-1 is recorded as 52 ± 19 % of WTGSK-3β. Also, the “Substrate phosphorylation (% of WTGSK-3β), pGS-1” value in the assay with pGS-1 is listed as 19 ± 14 % of WTGSK-3β.

B3: K91A: GSK-3β mutant, K91 replaced by alanine, SEQ ID NO:7 (protein)
chain: MSGRPRTTSFAESCKPVQQPSAFGSMKVSRDKDGSKVTTVVATPGQGPDRPQEVSYTDTKVIGNGSFGVVYQAKLCDSGELVAIKKVLQDARFKNRELQIMRKLDHCNIVRLRYFFYSSGEKKDEVYLNLVLDYVPETVYRVARHYSRAKQTLPVIYVKLYMYQLFRSLAYIHSFGICHRDIKPQNLLLDPDTAVLKLCDFGSAKQLVRGEPNVSYICSRYYRAPELIFGATDYTSSIDVWSAGCVLAELLLGQPIFPGDSGVDQLVEIIKVLGTPTREQIREMNPNYTEFKFPQIKAHPWTKDSSGTGHFTSGVRVFRPRTPPEAIALCSRLLEYTPTARLTPLEACAHSFFDELRDPNVKLPNGRDTPALFNFTTQELSSNPPLATILIPPHARIQAAASTPTNATAASDANTGDRGQTNNAASASASNST
modifications: GSK-3 beta, K91A mutant
Consider B3, for which the “Substrate phosphorylation (% of WTGSK-3β), p9CREB” value with p9CREB is on record as 161 ± 5 % of WTGSK-3β. Moreover, the “Substrate phosphorylation (% of WTGSK-3β), pIRS-1” value in the assay on pIRS-1 was 140 ± 18 % of WTGSK-3β. The “Substrate phosphorylation (% of WTGSK-3β), pGS-1” value in the assay with pGS-1 is recorded as 119 ± 5 % of WTGSK-3β.

B4: D90A: GSK-3β mutant, D90 replaced by alanine, SEQ ID NO:6 (protein)
chain: MSGRPRTTSFAESCKPVQQPSAFGSMKVSRDKDGSKVTTVVATPGQGPDRPQEVSYTDTKVIGNGSFGVVYQAKLCDSGELVAIKKVLQAKRFKNRELQIMRKLDHCNIVRLRYFFYSSGEKKDEVYLNLVLDYVPETVYRVARHYSRAKQTLPVIYVKLYMYQLFRSLAYIHSFGICHRDIKPQNLLLDPDTAVLKLCDFGSAKQLVRGEPNVSYICSRYYRAPELIFGATDYTSSIDVWSAGCVLAELLLGQPIFPGDSGVDQLVEIIKVLGTPTREQIREMNPNYTEFKFPQIKAHPWTKDSSGTGHFTSGVRVFRPRTPPEAIALCSRLLEYTPTARLTPLEACAHSFFDELRDPNVKLPNGRDTPALFNFTTQELSSNPPLATILIPPHARIQAAASTPTNATAASDANTGDRGQTNNAASASASNST
modifications: GSK-3 beta, D90A mutant
As for B4, the “Substrate phosphorylation (% of WTGSK-3β), p9CREB” value in the assay on p9CREB is listed as 92 ± 21 % of WTGSK-3β. Also, the “Substrate phosphorylation (% of WTGSK-3β), pIRS-1” value with pIRS-1 is 88 ± 15 % of WTGSK-3β. For the same molecule, in the assay on pGS-1, the “Substrate phosphorylation (% of WTGSK-3β), pGS-1” value is 83 ± 2 % of WTGSK-3β.
